These results are taken from publication PMC6900541 (Proceedings of the National Academy of Sciences of the …, 2019).

The assay deals with T1, human PD-L2 ectodomain (human, UniProt Q9BQ51 20-220).
T1 sequence: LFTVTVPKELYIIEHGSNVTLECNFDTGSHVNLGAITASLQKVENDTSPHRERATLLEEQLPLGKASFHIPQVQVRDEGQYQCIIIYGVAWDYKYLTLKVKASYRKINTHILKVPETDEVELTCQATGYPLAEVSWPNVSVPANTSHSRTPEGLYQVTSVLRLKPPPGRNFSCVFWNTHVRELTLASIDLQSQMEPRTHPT
As to the kind of experiment: BLI.

B1: human PD-1 triple mutant (N74G T76P A132V), PD-1-Fc (Fc fusion)
chain: LDSPDRPWNPPTFSPALLVVTEGDNATFTCSFSNTSESFVLNWYRMSPSGQPDKLAAFPEDRSQPGQDCRFRVTQLPNGRDFHMSVVRARRNDSGTYLCGAISLAPKVQIKESLRAELRVTERRAEVPTAHPSPSPRPAGQFQTLV
Usually Kd stands for the equilibrium constant for the complex coming apart. In turn, B1 had a dissociation constant Kd of 2.6 nM.
